This note sets out measurements from patent publication US20050196797A1 (JAPAN SCIENCE AND TECHNOLOGY AGENCY, published 2005).

The test deals with human SMG-1 (hSMG-1) (human, UniProt Q96Q15 1-3661, limits assumed). Description: cell-based or functional assay.
Sequence of human SMG-1 (hSMG-1) (Q96Q15 whole entry): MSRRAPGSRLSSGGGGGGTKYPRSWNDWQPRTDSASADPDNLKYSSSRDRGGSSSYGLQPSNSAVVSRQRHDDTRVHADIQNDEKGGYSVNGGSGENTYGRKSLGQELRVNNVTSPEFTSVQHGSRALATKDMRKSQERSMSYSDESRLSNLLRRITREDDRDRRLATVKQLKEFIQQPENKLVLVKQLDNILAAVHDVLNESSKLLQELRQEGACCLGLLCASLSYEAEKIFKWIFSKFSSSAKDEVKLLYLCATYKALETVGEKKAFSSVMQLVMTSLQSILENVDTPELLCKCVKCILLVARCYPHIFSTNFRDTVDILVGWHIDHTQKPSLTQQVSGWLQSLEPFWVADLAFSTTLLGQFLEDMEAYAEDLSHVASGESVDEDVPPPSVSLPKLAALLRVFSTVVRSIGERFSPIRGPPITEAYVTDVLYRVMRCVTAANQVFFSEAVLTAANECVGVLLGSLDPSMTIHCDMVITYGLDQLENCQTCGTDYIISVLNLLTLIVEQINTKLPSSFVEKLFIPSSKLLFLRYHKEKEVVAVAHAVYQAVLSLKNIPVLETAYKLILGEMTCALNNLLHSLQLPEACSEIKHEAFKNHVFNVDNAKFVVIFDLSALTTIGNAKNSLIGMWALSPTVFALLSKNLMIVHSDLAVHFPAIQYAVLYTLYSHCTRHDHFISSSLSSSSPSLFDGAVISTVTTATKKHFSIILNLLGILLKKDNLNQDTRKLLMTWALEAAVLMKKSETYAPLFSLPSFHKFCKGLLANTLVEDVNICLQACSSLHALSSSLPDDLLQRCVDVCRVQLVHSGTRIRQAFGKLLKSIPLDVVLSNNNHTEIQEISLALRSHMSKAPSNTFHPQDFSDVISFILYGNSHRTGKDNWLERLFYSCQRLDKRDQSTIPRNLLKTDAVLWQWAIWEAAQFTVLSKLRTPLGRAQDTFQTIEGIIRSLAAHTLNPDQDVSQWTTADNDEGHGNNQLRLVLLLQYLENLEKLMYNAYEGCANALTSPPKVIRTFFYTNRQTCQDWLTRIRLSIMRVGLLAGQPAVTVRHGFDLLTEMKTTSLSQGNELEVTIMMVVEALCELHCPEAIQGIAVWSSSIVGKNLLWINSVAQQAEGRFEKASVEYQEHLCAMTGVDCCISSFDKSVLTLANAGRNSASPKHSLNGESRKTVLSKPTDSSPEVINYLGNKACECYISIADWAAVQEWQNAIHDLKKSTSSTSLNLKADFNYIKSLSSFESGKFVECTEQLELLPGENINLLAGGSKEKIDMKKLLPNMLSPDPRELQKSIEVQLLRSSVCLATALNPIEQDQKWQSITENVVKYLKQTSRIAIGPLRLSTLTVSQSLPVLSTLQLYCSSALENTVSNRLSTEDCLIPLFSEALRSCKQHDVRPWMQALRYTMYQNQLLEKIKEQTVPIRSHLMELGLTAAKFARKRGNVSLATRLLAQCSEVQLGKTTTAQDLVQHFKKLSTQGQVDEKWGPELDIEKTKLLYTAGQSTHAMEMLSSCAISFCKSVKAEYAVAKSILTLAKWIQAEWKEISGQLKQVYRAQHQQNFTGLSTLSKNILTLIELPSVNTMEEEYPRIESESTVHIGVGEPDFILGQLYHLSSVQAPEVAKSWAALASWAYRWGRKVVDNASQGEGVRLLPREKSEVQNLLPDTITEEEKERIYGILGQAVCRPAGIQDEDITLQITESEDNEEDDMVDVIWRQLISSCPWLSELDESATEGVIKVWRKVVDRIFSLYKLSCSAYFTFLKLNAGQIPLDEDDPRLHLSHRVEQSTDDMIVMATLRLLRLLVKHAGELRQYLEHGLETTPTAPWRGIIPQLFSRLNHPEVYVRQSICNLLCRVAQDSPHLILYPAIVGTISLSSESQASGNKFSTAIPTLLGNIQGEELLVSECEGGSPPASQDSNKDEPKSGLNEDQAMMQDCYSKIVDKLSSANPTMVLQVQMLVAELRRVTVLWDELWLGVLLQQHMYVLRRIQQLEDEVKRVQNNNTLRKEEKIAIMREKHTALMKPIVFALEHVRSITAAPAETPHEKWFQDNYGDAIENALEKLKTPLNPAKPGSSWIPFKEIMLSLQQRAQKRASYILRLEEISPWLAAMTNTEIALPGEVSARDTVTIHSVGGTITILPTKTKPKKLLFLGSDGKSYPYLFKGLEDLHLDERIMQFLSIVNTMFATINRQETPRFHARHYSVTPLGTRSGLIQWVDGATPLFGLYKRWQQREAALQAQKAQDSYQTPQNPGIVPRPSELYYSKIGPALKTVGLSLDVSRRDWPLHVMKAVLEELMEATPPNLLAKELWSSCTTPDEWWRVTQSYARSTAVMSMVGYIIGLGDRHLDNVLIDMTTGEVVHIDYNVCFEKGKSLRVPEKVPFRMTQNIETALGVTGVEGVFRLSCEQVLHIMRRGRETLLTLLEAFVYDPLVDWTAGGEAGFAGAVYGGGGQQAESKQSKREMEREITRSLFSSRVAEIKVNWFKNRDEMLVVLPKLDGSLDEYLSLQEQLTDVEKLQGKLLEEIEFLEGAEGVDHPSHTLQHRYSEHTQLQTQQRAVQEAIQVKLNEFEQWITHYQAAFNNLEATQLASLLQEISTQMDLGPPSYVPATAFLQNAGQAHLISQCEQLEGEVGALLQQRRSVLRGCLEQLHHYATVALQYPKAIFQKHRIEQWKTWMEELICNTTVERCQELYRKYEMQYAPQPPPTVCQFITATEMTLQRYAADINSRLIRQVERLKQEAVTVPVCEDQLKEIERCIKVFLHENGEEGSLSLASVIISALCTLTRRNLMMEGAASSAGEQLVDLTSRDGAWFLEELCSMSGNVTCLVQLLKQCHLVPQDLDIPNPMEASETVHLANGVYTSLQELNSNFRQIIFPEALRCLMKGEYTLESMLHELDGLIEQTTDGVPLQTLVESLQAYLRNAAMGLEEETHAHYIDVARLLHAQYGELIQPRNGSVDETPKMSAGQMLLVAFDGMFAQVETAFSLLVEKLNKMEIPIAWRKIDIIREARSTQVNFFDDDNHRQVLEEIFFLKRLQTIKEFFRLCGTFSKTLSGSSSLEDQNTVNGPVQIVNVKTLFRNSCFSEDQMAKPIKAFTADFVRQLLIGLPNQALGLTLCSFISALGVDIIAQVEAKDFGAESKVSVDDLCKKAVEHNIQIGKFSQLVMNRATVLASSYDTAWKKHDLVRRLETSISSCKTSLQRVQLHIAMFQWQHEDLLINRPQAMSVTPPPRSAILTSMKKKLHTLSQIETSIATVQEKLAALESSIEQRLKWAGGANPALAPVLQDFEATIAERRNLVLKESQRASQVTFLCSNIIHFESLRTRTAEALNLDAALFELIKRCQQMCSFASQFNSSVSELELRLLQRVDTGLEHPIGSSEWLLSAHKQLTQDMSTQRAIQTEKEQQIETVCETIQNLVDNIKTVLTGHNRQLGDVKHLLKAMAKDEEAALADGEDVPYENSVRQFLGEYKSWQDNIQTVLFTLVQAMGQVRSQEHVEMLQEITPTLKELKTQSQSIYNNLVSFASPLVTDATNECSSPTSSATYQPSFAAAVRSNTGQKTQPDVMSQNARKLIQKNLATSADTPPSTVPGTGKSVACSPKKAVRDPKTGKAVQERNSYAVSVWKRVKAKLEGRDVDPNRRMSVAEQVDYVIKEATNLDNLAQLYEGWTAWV

B1: SMGBP1 (SMG Binding Protein 1) (other)
chain: MAGPVSLRDLLMGASAWMGSESPGGSPTEGGGSAAGGPEPPWREDEICVVGIFGKTALRLNSEKFSLVNTVCDRQVFPLFRHQDPGDPGPGIRTEAGAVGEAGGAEDPGAAAGGSVRGSGAVAEGNRTEAGSQDYSLLQAYYSQESKVLYLLLTSICDNSQLLRACRALQSGEAGGGLSLPHAEAHEFWKHQEKLQCLSLLYLFSVCHILLLVHPTCSFDITYDRVFRALDGLRQKVLPLLKTAIKDCPVGKDWKLNCRPCPPRLLFLFQLNGALKVVPPRNQDPAHPDKPKKHSPKRRLQHALEDQIYRIFRKSRVLTNQSINCLFTVPANQAFVYIVPGSQEEDPVGMLLDQLRSHCTVKDPESLLVPAPLSGPRRYQVMRQHSRQQLSFHIDSSSSSSSGQLVDFTLWEFLWQHVELVLSKKGFDDSVGRNPQPSHFELPTYQKWISAASKLYEVAIDGKEEDLGSPTGELTSKILSSIKVLEGFLDIDTKFSENRCQKALPMAHSAYQSNLPHNYTMTVHKNQLAQALRVYSQHARGPAFHKYAMQLHEDCYKFWSNGHQLCEERSLTDQHCVHKFHSLPKSGEKPEADRNPPVLYHNSRARSTGACNCGRKQAPRDDPFDIKAANYDFYQLLEEKCCGKLDHINFPVFEPSTPDPAPAKNESSPAPPDSDADKLKEKEPQTQGESTSLSLALSLGQSTDSLGTYPADPQAGGDNPEVHGQVEVKTEKRPNFVDRQASTVEYLPGMLHSNCPKGLLPKFSSWSLVKLGPAKSYNFHTGLDQQGFIPGTNYLMPWDIVIRTRAEDEGDLDTNSWPAPNKAIPGKRSAVVMGRGRRRDDIARAFVGFEYEDSRGRRFMCSGPDKVMKVMGSGPKESALKALNSDMPLYILSSSQGRGLKPHYAQLMRLFVVVPDAPLQIILMPQVQPGPPPCPVFYPEKQEITLPPDGLWVLRFPYAYVTERGPCFPPKENVQLMSYKVLRGVLKAVTQ
For B1, the “phosphorylation of hUPF1 (P-hUPF1/hUPF1) in HeLa TetOff cells transfected with siRNA against p130, relative to control siRNA” value is roughly 40%.
